Source: patent publication US20240182536A1 (MURAL ONCOLOGY, published 2024)
Positions count from the first letter of the chain named. Names and notes keep the numbering of the source.

T1: IL-18 receptors on HEK-Blue IL-18 reporter cells (UniProt Q13478 19-541; O95256 20-599, limits assumed)
T1 sequence (looked up) 1: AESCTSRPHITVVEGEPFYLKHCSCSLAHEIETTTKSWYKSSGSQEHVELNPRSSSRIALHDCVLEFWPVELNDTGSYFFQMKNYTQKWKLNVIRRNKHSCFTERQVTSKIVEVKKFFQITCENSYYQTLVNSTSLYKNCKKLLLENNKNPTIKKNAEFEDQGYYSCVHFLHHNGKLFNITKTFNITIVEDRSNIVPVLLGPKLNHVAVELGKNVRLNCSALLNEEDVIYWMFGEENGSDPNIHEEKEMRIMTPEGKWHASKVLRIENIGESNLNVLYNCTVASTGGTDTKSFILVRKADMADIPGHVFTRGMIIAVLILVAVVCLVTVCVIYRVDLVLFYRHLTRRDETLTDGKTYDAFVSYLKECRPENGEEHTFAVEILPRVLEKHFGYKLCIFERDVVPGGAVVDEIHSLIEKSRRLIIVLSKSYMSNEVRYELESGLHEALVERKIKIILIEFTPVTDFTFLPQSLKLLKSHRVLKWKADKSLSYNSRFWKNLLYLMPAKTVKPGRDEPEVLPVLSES
T1 sequence (looked up) 2: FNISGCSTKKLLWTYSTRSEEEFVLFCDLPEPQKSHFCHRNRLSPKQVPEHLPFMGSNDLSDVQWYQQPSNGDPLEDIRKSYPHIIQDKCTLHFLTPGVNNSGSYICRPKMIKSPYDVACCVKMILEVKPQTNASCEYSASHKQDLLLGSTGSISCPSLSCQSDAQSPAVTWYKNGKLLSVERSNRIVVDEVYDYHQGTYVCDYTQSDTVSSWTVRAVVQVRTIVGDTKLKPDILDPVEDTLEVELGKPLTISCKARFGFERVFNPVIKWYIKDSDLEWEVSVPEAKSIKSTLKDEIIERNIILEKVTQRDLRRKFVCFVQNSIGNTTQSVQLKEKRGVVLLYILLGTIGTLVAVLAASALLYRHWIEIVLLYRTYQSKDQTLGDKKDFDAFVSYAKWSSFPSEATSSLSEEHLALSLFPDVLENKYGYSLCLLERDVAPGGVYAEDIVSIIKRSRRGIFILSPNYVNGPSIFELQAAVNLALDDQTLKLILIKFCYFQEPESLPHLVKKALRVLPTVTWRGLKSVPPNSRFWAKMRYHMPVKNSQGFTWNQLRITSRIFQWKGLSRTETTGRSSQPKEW

T2: IL-18 binding protein (IL-18BP) (UniProt O95998 31-194)
T2 sequence (looked up): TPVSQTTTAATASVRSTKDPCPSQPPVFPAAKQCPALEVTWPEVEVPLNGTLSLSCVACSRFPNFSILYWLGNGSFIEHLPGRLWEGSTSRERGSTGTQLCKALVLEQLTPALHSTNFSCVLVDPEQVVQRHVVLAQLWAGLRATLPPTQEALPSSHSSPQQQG

B1: IL-18 variant G3L, E6Y, D54T, T63S, N91Y, R104Q (ligand)
chain: YFLKLYSKLSVIRNLNDQVLFIDQGNRPLFEDMTDSDMRDNAPRTIFIISMYKTSQPRGMAVSISVKSEKISTLSSENKIISFKEMNPPDYIKDTKSDIIFFQQSVPGHDNKMQFESSSYEGYFLASEKERDLFKLILKKEDELGDRSIMFTVQNED
B2: IL-18 variant G3L, E6S, D54T, T63S, N91Y, R104Q (ligand)
chain: B1 chain with Y6S
B3: IL-18 variant G3P, E6K, D54Y, S55P, Q56H, T63S, N91S, R104Q (ligand)
chain: B1 chain with L3P, Y6K, T54Y, S55P, Q56H, Y91S
B4: IL-18 variant G3D, E6G, K53G, D54A, T63S, N91Y, R104Q (ligand)
chain: B1 chain with L3D, Y6G, K53G, T54A
B5: IL-18 variant G3Q, E6H, K53T, D54S, S55Y, N91Y, R104K (ligand)
chain: B1 chain with L3Q, Y6H, K53T, T54S, S55Y, S63T, Q104K
B6: IL-18 variant G3P, E6H, N91L (ligand)
chain: B1 chain with L3P, Y6H, T54D, S63T, Y91L, Q104R
B7: IL-18 variant G3P, E6K, D54Y, S55P, T63S, N91S, R104Q (ligand)
chain: B1 chain with L3P, Y6K, T54Y, S55P, Y91S
B8: IL-18 variant G3P, E6K, D54Y, S55P, T63S, N91S, R104Q, Q154R (ligand)
chain: B1 chain with L3P, Y6K, T54Y, S55P, Y91S, Q154R
B9: IL-18 variant G3Q, E6Q, K53T, D54W, S55F, N91Y (ligand)
chain: B1 chain with L3Q, Y6Q, K53T, T54W, S55F, S63T, Q104R
B10: IL-18 variant G3P, E6H, D54A, S55P, Q56K, T63S, N91M (ligand)
chain: B1 chain with L3P, Y6H, T54A, S55P, Q56K, Y91M, Q104R
B11: IL-18 variant G3P, E6K, D54R, S55P, T63A, N91V (ligand)
chain: B1 chain with L3P, Y6K, T54R, S55P, S63A, Y91V, Q104R
B12: IL-18 variant G3P, E6V, K53A, D54W, S55P, T63S, N91L, R104K (ligand)
chain: B1 chain with L3P, Y6V, K53A, T54W, S55P, Y91L, Q104K
B13: IL-18 variant G3P, E6G, D54T, S55W, N91E, R104K (ligand)
chain: B1 chain with L3P, Y6G, S55W, S63T, Y91E, Q104K
B14: IL-18 variant G3R, L5W, E6H, D54Y, Q56H, N91R (ligand)
chain: B1 chain with L3R, L5W, Y6H, T54Y, Q56H, S63T, Y91R, Q104R
B15: IL-18 variant G3S, E6Q, K53S, D54Y, S55H, N91L, R104Q (ligand)
chain: B1 chain with L3S, Y6Q, K53S, T54Y, S55H, S63T, Y91L
B16: IL-18 variant G3T, E6Q, K53G, D54G, S55H, T63A, S65T, N91R, R104Q (ligand)
chain: B1 chain with L3T, Y6Q, K53G, T54G, S55H, S63A, S65T, Y91R
B17: IL-18 variant G3P, E6K, K53M, D54W, S55N, T63S, N91I (ligand)
chain: B1 chain with L3P, Y6K, K53M, T54W, S55N, Y91I, Q104R

Key:
[1] = target: T1, IL-18 receptors on HEK-Blue IL-18 …; experiment: cell-based or functional assay
[2] = target: T2, IL-18 binding protein (IL-18BP); experiment: cell-based or functional assay

| Binder | Activity, No BP, DF-100000 [1] | Activity, No BP, DF-500000 [1] | Activity, No BP, DF-2500000 [1] | Activity, +100 nM BP, DF-1000002 [2] | Activity, +100 nM BP, DF-5000003 [2] | Activity, +100 nM BP, DF-25000004 [2] | Ratio (-BP/+BP), DF-1000005 [2] | Ratio (-BP/+BP), DF-5000006 [2] | Ratio (-BP/+BP), DF-25000007 [2] |
| --- | --- | --- | --- | --- | --- | --- | --- | --- | --- |
| B1 | 2.14 | 2.02 | 1.69 | 2.04 | 1.92 | 1.45 | 1.05 | 1.05 | 1.17 |
| B2 | 2.11 | 1.98 | 1.73 | 2.06 | 1.95 | 1.44 | 1.02 | 1.02 | 1.2 |
| B3 | 1.63 | 1.1 | 0.53 | 1.69 | 1.08 | 0.54 | 0.96 | 1.02 | 0.98 |
| B4 | 1.36 | 0.72 | 0.21 | 1.33 | 0.73 | 0.19 | 1.02 | 0.98 | 1.14 |
| B5 | 1.52 | 0.95 | 0.31 | 1.48 | 0.88 | 0.29 | 1.03 | 1.08 | 1.08 |
| B6 | 1.45 | 0.9 | 0.29 | 1.52 | 0.93 | 0.33 | 0.95 | 0.97 | 0.87 |
| B7 | 1.75 | 1.32 | 0.72 | 1.8 | 1.35 | 0.77 | 0.97 | 0.97 | 0.93 |
| B8 | 1.49 | 0.94 | 0.36 | 1.51 | 0.81 | 0.39 | 0.99 | 1.16 | 0.93 |
| B9 | 1.23 | 0.54 | 0.17 | 1.14 | 0.45 | 0.14 | 1.08 | 1.21 | 1.2 |
| B10 | 1.2 | 0.63 | 0.17 | 1.24 | 0.61 | 0.19 | 0.97 | 1.03 | 0.9 |
| B11 | 1.31 | 0.67 | 0.22 | 1.34 | 0.73 | 0.28 | 0.98 | 0.92 | 0.79 |
| B12 | 1.18 | 0.52 | 0.19 | 1.21 | 0.57 | 0.18 | 0.98 | 0.9 | 1.04 |
| B13 | 0.35 | 0.13 | 0.07 | 0.33 | 0.12 | 0.08 | 1.09 | 1.06 | 0.97 |
| B14 | 0.39 | 0.12 | 0.08 | 0.32 | 0.11 | 0.08 | 1.25 | 1.09 | 1.01 |
| B15 | 0.49 | 0.16 | 0.08 | 0.51 | 0.2 | 0.1 | 0.95 | 0.81 | 0.88 |
| B16 | 0.58 | 0.18 | 0.12 | 0.49 | 0.18 | 0.11 | 1.19 | 1.03 | 1.14 |
| B17 | 0.64 | 0.21 | 0.08 | 0.65 | 0.2 | 0.09 | 0.98 | 1.07 | 0.91 |
